In US9707281B2, “Pharmaceutical compositions and methods for digesting atherosclerotic plaques” (Northwestern University, priority 2010, dated 2017):

System: Human arterial plaque samples
Assay: in vitro dissolution and digestion of atherosclerotic plaque specimens (percent reduction of plaque weight)
Conditions: EDTA 0.5-2 mg/ml, β-cyclodextrin 1-100 mMol, tPA 0.5-2 mg/ml, p<0.05
Procedure: Atherosclerotic plaques from surgical endarterectomies were obtained from various anatomic sites. All experiments were performed by cutting a given plaque into equal parts by weight then exposing them to various agents alone and in combination to determine the most optimal digestion solution. The optimal concentration and conditions for plaque dissolution and digestion were determined for ethylenediaminetetraacetic acid (EDTA), β-cyclodextrin, tPA, collagenase type I, III, IV, and V. Weights of each specimen were obtained prior to exposure of each solution and at different time points to determine percent of digested versus undigested plaque. Additional variables that were assessed and optimized include: 1) different combinations of EDTA, β-cyclodextrin, and the collagenases, 2) temperature, 3) pH, and 4) agitation.
Atherosclerotic plaques were obtained from patients undergoing endarterectomies. The optimal concentration and conditions for plaque dissolution and digestion were determined for ethylenediaminetetraacetic acid (EDTA), β-cyclodextrin, and collagenase type I, III, IV, and V. Variables that were assessed included: 1) combination of different agents, 2) time, 3) temperature, 4) pH, and 5) agitation. Weight of each specimen was measured at different time points to determine percent of undigested plaque. […]

B1: tPA: tissue plasminogen activator (protein, UniProt P00750 36-562, looked up)
Tissue-type plasminogen …: SYQVICRDEKTQMIYQQHQSWLRPVLRSNRVEYCWCNSGRAQCHSVPVKSCSEPRCFNGGTCQQALYFSDFVCQCPEGFAGKCCEIDTRATCYEDQGISYRGTWSTAESGAECTNWNSSALAQKPYSGRRPDAIRLGLGNHNYCRNPDRDSKPWCYVFKAGKYSSEFCSTPACSEGNSDCYFGNGSAYRGTHSLTESGASCLPWNSMILIGKVYTAQNPSAQALGLGKHNYCRNPDGDAKPWCHVLKNRRLTWEYCDVPSCSTCGLRQYSQPQFRIKGGLFADIASHPWQAAIFAKHRRSPGERFLCGGILISSCWILSAAHCFQERFPPHHLTVILGRTYRVVPGEEEQKFEVEKYIVHKEFDDDTYDNDIALLQLKSDSSRCAQESSVVRTVCLPPADLQLPDWTECELSGYGKHEALSPFYSERLKEAHVRLYPSSRCTSQHLLNRTVTDNMLCAGDTRSGGPQANLHDACQGDSGGPLVCLNDGRMTLVGIISWGLGCGQKDVPGVYTKVTNYLDWIRDNMRP
reduction in plaque weight, agent alone: 20%
